# Measured values reported in PMC9482650, “Quantitative fragmentomics allow affinity mapping of interactomes” (Nature Communications, 2022).
# T1: MAGI2_1, Q86UL8
# T1 sequence (Q86UL8 12-111, limits assumed, looked up): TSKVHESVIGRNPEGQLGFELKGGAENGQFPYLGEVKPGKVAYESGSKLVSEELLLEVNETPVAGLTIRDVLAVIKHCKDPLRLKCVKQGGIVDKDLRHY
# T2: NHERF3_2, Q5T2W1
# T2 sequence (Q5T2W1 129-225, limits assumed, looked up): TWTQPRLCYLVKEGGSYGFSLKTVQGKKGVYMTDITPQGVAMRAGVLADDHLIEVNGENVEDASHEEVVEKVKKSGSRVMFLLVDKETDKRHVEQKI
# T3: SHANK2, Q9UPX8
# T3 sequence (Q9UPX8 621-730, limits assumed, looked up): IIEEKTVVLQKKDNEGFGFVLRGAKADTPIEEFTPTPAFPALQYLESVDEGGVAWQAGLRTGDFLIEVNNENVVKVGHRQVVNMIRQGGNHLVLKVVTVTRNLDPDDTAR
# T4: GRIP1_1, Q9Y3R0
# T4 sequence (Q9Y3R0 48-146, limits assumed, looked up): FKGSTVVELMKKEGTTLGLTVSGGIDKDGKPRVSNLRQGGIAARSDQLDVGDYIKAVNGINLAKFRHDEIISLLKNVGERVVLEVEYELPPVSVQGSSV
# T5: SIPA1L3, O60292
# T5 sequence (O60292 961-1052, limits assumed, looked up): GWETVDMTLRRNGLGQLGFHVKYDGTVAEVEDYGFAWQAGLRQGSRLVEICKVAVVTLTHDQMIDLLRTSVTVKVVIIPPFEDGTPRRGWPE
# T6: NHERF1_1, O14745
# T6 sequence (O14745 9-104, limits assumed, looked up): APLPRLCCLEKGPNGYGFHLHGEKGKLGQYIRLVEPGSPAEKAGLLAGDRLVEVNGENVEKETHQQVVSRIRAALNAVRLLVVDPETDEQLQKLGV
# T7: MPDZ_11, O75970
# T7 sequence (O75970 1720-1817, limits assumed, looked up): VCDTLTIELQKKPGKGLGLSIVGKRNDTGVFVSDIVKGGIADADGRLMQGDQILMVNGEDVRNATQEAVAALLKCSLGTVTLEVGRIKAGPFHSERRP
# T8: INTU, Q9ULD6
# T8 sequence (Q9ULD6 180-273, limits assumed, looked up): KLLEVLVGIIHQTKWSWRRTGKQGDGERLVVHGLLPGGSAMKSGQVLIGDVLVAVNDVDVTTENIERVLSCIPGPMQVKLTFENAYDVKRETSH
# T9: NHERF1_2, O14745
# T9 sequence (O14745 149-244, limits assumed, looked up): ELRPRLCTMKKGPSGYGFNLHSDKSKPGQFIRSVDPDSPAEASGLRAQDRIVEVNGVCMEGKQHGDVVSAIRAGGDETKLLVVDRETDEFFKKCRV
# T10: TJP3_1, O95049
# T10 sequence (O95049 6-103, limits assumed, looked up): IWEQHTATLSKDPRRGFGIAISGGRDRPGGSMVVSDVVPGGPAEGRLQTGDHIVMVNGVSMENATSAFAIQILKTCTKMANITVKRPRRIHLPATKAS
# T11: PTPN13_4, Q12923
# T11 sequence (Q12923 1783-1878, limits assumed, looked up): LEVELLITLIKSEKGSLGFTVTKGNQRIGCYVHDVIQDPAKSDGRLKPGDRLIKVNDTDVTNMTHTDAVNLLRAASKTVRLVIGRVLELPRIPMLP
# T12: DVL1, O14640
# T12 sequence (O14640 246-333, limits assumed, looked up): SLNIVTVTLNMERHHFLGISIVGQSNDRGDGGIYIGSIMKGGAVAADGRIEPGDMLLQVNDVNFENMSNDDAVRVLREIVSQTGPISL
# T13: PARD6B, Q9BYG5
# T13 sequence (Q9BYG5 152-260, limits assumed, looked up): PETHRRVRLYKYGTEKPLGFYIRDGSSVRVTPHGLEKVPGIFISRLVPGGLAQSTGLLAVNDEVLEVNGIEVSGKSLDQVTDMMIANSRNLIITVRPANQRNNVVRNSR
# Experiments:
# Assay in all cases: holdup assay
# Design in all cases: key: below the threshold = too weak to quantify, mostly under pKd 3.1 to 4
# MAGI2_1, Q86UL8 = target: T1, MAGI2_1, Q86UL8
# NHERF3_2, Q5T2W1 = target: T2, NHERF3_2, Q5T2W1
# SHANK2, Q9UPX8 = target: T3, SHANK2, Q9UPX8
# GRIP1_1, Q9Y3R0 = target: T4, GRIP1_1, Q9Y3R0
# DLG5_2, Q8TDM6 = target: DLG5_2, Q8TDM6
# Chain of DLG5_2, Q8TDM6 (Q8TDM6 714-800): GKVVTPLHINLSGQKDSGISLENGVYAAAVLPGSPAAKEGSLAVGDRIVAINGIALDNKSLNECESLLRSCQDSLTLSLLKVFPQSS
# SIPA1L3, O60292 = target: T5, SIPA1L3, O60292
# DVL2, O14641 = conditions: plain residues with an end cap or a label only (N-terminal biotin on a linker: (peg)3)
# Chain of DVL2, O14641 (O14641 260-359): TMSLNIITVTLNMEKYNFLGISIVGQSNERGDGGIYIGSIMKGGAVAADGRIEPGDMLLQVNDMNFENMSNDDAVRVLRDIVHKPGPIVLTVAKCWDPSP
# NHERF1_1, O14745 = target: T6, NHERF1_1, O14745
# AHNAK2, Q8IVF2 = target: AHNAK2, Q8IVF2
# Chain of AHNAK2, Q8IVF2 (Q8IVF2 108-193): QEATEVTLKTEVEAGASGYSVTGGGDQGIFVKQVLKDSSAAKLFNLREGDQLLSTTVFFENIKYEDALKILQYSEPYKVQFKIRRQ
# GRIP2_2, Q9C0E4 = conditions: plain residues with an end cap or a label only (N-terminal biotin on a linker: (peg)3)
# Chain of GRIP2_2, Q9C0E4 (Q9C0E4 137-245): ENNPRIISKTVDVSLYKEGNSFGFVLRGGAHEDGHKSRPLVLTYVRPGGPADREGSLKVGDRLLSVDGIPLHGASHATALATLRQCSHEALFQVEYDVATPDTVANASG
# PDZRN4_2, Q6ZMN7 = target: PDZRN4_2, Q6ZMN7
# Chain of PDZRN4_2, Q6ZMN7 (Q6ZMN7 389-498): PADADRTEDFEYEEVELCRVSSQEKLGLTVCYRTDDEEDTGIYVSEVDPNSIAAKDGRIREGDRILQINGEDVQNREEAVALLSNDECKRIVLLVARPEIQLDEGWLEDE
# TJP1_1, Q07157 = target: TJP1_1, Q07157
# Chain of TJP1_1, Q07157 (Q07157 18-120): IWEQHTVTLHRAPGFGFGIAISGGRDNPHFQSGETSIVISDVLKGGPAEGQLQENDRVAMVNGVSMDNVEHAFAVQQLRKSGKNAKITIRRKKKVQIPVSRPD
# MPDZ_11, O75970 = target: T7, MPDZ_11, O75970
# INTU, Q9ULD6 = target: T8, INTU, Q9ULD6; conditions: plain residues with an end cap or a label only (N-terminal biotin on a linker: (peg)3)
# NHERF4_3, Q86UT5 = target: NHERF4_3, Q86UT5
# Chain of NHERF4_3, Q86UT5 (Q86UT5 325-412): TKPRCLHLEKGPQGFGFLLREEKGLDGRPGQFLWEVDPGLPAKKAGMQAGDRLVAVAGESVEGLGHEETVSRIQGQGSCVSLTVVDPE
# NHERF1_2, O14745 = target: T9, NHERF1_2, O14745
# TJP3_1, O95049 = target: T10, TJP3_1, O95049
# MAGI3_5, Q5TCQ9 = target: MAGI3_5, Q5TCQ9
# Chain of MAGI3_5, Q5TCQ9 (Q5TCQ9 847-941): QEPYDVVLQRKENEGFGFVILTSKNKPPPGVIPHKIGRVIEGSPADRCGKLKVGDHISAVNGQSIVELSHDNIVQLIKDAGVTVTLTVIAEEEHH
# MAST3, O60307 = target: MAST3, O60307
# Chain of MAST3, O60307 (O60307 945-1048): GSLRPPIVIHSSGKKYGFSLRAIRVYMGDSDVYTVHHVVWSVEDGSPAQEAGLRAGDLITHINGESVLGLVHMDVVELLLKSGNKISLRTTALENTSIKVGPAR
# PTPN13_4, Q12923 = target: T11, PTPN13_4, Q12923
# DVL1, O14640 = target: T12, DVL1, O14640; conditions: plain residues with an end cap or a label only (N-terminal biotin on a linker: (peg)3)
# MAGI3_4, Q5TCQ9 = target: MAGI3_4, Q5TCQ9
# Chain of MAGI3_4, Q5TCQ9 (Q5TCQ9 716-815): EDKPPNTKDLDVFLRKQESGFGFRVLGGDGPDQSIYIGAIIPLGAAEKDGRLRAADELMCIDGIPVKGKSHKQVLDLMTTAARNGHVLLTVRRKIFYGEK
# PARD6B, Q9BYG5 = target: T13, PARD6B, Q9BYG5; conditions: plain residues with an end cap or a label only (N-terminal biotin on a linker: (peg)3)
# LNX1_4, Q8TBB1 = conditions: plain residues with an end cap or a label only (N-terminal biotin on a linker: (peg)3)
# Chain of LNX1_4, Q8TBB1 (Q8TBB1 631-726): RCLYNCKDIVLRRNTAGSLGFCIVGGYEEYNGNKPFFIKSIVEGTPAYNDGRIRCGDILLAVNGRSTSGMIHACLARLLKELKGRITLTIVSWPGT
# [1] = plain residues with an end cap or a label only (N-terminal biotin on a linker: (peg)3)
# [2] = modified: phospho on T at position -2 from the C-terminal residue
Binder,"pKd (MAGI2_1, Q86UL8; [1])","pKd (NHERF3_2, Q5T2W1; [1])","pKd (SHANK2, Q9UPX8; [1])","pKd (GRIP1_1, Q9Y3R0; [1])","pKd (DLG5_2, Q8TDM6; [1])","pKd (SIPA1L3, O60292; [1])","pKd (DVL2, O14641)","pKd (NHERF1_1, O14745; [1])","pKd (AHNAK2, Q8IVF2; [1])","pKd (PDZRN4_2, Q6ZMN7; [1])","pKd (TJP1_1, Q07157; [1])","pKd (MPDZ_11, O75970; [1])","pKd (INTU, Q9ULD6)","pKd (NHERF4_3, Q86UT5; [1])","pKd (NHERF1_2, O14745; [1])","pKd (TJP3_1, O95049; [1])","pKd (MAGI3_5, Q5TCQ9; [1])","pKd (MAST3, O60307; [1])","pKd (PTPN13_4, Q12923; [1])","pKd (DVL1, O14640)",other results
"RRRRSQSRESQC [HBV-HBc, P03193]",below the threshold,below the threshold,below the threshold,below the threshold,below the threshold,3.96,below the threshold,below the threshold,below the threshold,below the threshold,below the threshold,below the threshold,below the threshold,below the threshold,3.96,below the threshold,below the threshold,below the threshold,below the threshold,below the threshold,"pKd (GRIP2_2, Q9C0E4): below the threshold; pKd (MAGI3_4, Q5TCQ9; [1]): below the threshold; pKd (PARD6B, Q9BYG5): below the threshold; pKd (LNX1_4, Q8TBB1): below the threshold"
"RYEDTTLVEDTVL [WNV-NS5, Q9Q6P4]",below the threshold,below the threshold,4.59,below the threshold,below the threshold,below the threshold,below the threshold,5.14,below the threshold,below the threshold,below the threshold,below the threshold,below the threshold,below the threshold,below the threshold,below the threshold,below the threshold,below the threshold,below the threshold,below the threshold,"pKd (MAGI3_4, Q5TCQ9; [1]): below the threshold; pKd (PARD6B, Q9BYG5): below the threshold; pKd (LNX1_4, Q8TBB1): below the threshold"
"SSRTRRETQL [HPV16-E6_-2P, P03126]",,,,,,,,,,,,,,,,,,,,,"pKd (MAGI2_1, Q86UL8; [2]): below the threshold; pKd (NHERF3_2, Q5T2W1; [2]): below the threshold; pKd (SHANK2, Q9UPX8; [2]): below the threshold; pKd (GRIP1_1, Q9Y3R0; [2]): 4.61; pKd (DLG5_2, Q8TDM6; [2]): below the threshold; pKd (SIPA1L3, O60292; [2]): below the threshold; pKd (NHERF1_1, O14745; [2]): below the threshold; pKd (AHNAK2, Q8IVF2; [2]): below the threshold; pKd (PDZRN4_2, Q6ZMN7; [2]): 4.26; pKd (TJP1_1, Q07157; [2]): below the threshold; pKd (MPDZ_11, O75970; [2]): below the threshold; pKd (NHERF4_3, Q86UT5; [2]): below the threshold; pKd (NHERF1_2, O14745; [2]): below the threshold; pKd (TJP3_1, O95049; [2]): below the threshold; pKd (MAGI3_5, Q5TCQ9; [2]): below the threshold; pKd (MAST3, O60307; [2]): below the threshold; pKd (PTPN13_4, Q12923; [2]): below the threshold; pKd (MAGI3_4, Q5TCQ9; [2]): below the threshold"
"QQSMSSADSTQA [SARS-Cov2-N, P0DTC9]",below the threshold,below the threshold,below the threshold,below the threshold,below the threshold,below the threshold,below the threshold,below the threshold,below the threshold,below the threshold,below the threshold,below the threshold,below the threshold,below the threshold,below the threshold,below the threshold,below the threshold,below the threshold,below the threshold,below the threshold,"pKd (GRIP2_2, Q9C0E4): below the threshold; pKd (MAGI3_4, Q5TCQ9; [1]): below the threshold; pKd (PARD6B, Q9BYG5): below the threshold; pKd (LNX1_4, Q8TBB1): below the threshold"
